PMC10239968, “[^18F]AlF-NOTA-ADH-1: A new PET molecular radiotracer for imaging of N-cadherin-positive tumors” (Frontiers in Oncology, 2023)

Experiments:
SW480 tumor xenografts = experiment: Micro-PET imaging, SW480 tumor model; assay type: in vivo, nude mice; details: SW480 tumor-bearing nude mouse model, 60 min after injecting, non-blocked
Description: (§1) [^18F]AlF-NOTA-ADH-1 was evaluated by micro-PET imaging on nude mice bearing a PDX tumor, SW-480 and BxPC3 tumor xenografts. Each tumor-bearing nude mouse was injected with 3.7MBq [^18F]AlF-NOTA-ADH-1 via the tail vein. After being anesthetized with isoflurane, tumor-bearing nude mice were imaged using a micro-PET/CT scanner at 60 minutes post-injection under continuous isoflurane inhalation using a nasal mask with a connecting tube. Micro-PET/CT scanning was performed after low-dose 3D acquisition CT scanning at 10 minutes per bed. A blocking study was conducted, in which a saturating dose of unlabeled ADH-1 (20 mg/kg of mouse body weight) was intravenously administered 60 min before the intravenous injection of [^18F]AlF-NOTA-ADH-1.
(§2) The three-dimensional volume of interest (VOI) was used to assess the standard uptake value (SUV) of selected organs. The Seimens Inveon analysis software configured with micro-PET/CT was used to delineate the region of interest along the edge of the tumor and each normal tissue on the PET image. Subsequently, the SUV of each region of interest was measured, and the tumor/non-tumor ratio (T/NT) between the tumor and normal tissue was measured.

in vivo = experiment: in vivo; set-up: species or system Kunming mice; details: mouse; for tissue uptake at 2 min / tissue uptake at 5 min / tissue uptake at 0.25 h / tissue uptake at 0.5 h / tissue uptake at 1 h / tissue uptake at 2 h: Kunming, total radioactivity
Description: Thirty SPF Kunming mice weighing 18-20g were randomly divided into 6 groups (n=5). As described above, [^18F]AlF-NOTA-ADH-1 was purified and separated by HPLC analysis. Each mouse was injected with a dose of 0.74MBq (20μCi) through a caudal vein. Blood was collected from the orbit, the mice were sacrificed, and the brain, heart, lung, liver, spleen, kidney, stomach, intestine, muscle, bone and other organs were taken at 2 min, 5 min, 15 min, 30 min, 60min and 120min after injection. The radioactivity results were recorded as injected radioactivity per gram of tissue (% ID/g) corrected for background and decay.

[1] = test system: pancreatic PDX tumor xenografts; experiment: Micro-PET imaging, PDX tumor model; assay type: in vivo, nude mice; details: 60 min p.i.
Description: as §1, §2

[2] = assay type: physicochemical
Description: The partition coefficient of [^18F]AlF-NOTA-ADH-1 was measured by assessing the distribution of radioactivity in 1-octanol and phosphate buffer in a 2 mL centrifuge tube. 20µL of [^18F]AlF-NOTA-ADH-1 solution was added to a tube containing 0.5 mL each of 1-octanol and PBS. The mixture was vortexed and centrifuged (5,000 r/min) for 5 min. A total of 2 samples (50 μL) were collected from each layer and were assayed in a γ counter. Partition coefficients (log Po/w) are shown as the log counts in 1-octanol vs. PBS layers (n=3).

BxPC3 tumor xenografts = experiment: Micro-PET imaging, BxPC3 tumor model; assay type: in vivo, nude mice; details: BxPC3-bearing tumor model mice, 60 min p.i.
Description: as §1, §2

[3] = iv, 0.74 MBq (20 uCi) per mouse, Blood radioactive concentration
[4] = iv, 0.74 MBq (20 uCi) per mouse, Bone uptake
[5] = iv, 0.74 MBq (20 uCi) per mouse, Brain uptake
[6] = iv, 0.74 MBq (20 uCi) per mouse, Intestines uptake
[7] = iv, 0.74 MBq (20 uCi) per mouse, Muscle uptake
[8] = iv, 0.74 MBq (20 uCi) per mouse, Skin uptake

With `CC(=O)N[C@H]1CSSC[C@@H](C(=O)NCCNC(=O)CN2CCN(CC(=O)O)CCN(CC(=O)O)CC2)NC(=O)[C@H](C(C)C)NC(=O)[C@H](C)NC(=O)[C@H](Cc2c[nH]cn2)NC1=O` [[^18F]AlF-NOTA-ADH-1] the “Micro-PET T/Bone” value (SW480 tumor xenografts) was 1.903±0.273, the “Micro-PET T/Lung” value (SW480 tumor xenografts) was 3.359±2.998 and the Micro-PET tumor/muscle ratio (SW480 tumor xenografts) was 1.443±0.121. For the same compound, the tissue uptake at 2 min (in vivo; [3]) was 18.8 ± 1.95 %ID/g, the tissue uptake at 5 min (in vivo; [3]) was 8.77 ± 1.37 %ID/g and the tissue uptake at 0.25 h (in vivo; [3]) was 3.79 ± 1.19 %ID/g. The tissue uptake at 0.5 h (in vivo; [3]) was 2.28 ± 0.81 %ID/g, the tissue uptake at 1 h (in vivo; [3]) was 2.15 ± 0.18 %ID/g and the tissue uptake at 2 h (in vivo; [3]) was 1.04 ± 0.36 %ID/g. For the same compound, the tissue uptake at 2 min (in vivo; [4]) was 5.3 ± 0.94 %ID/g, the tissue uptake at 5 min (in vivo; [4]) was 6.71 ± 0.62 %ID/g and the tissue uptake at 0.25 h (in vivo; [4]) was 3.72 ± 0.29 %ID/g. It also gave a tissue uptake at 0.5 h (in vivo; [4]) of 3.09 ± 0.26 %ID/g, a tissue uptake at 1 h (in vivo; [4]) of 1.51 ± 0.36 %ID/g and a tissue uptake at 2 h (in vivo; [4]) of 1.38 ± 0.73 %ID/g. It also gave a tissue uptake at 2 min (in vivo; [5]) of 1.05 ± 0.25 %ID/g, a tissue uptake at 5 min (in vivo; [5]) of 0.87 ± 0.3 %ID/g and a tissue uptake at 0.25 h (in vivo; [5]) of 0.46 ± 0.1 %ID/g. The tissue uptake at 0.5 h (in vivo; [5]) was 0.39 ± 0.1 %ID/g, the tissue uptake at 1 h (in vivo; [5]) was 0.22 ± 0.05 %ID/g and the tissue uptake at 2 h (in vivo; [5]) was 0.58 ± 0.68 %ID/g. The tissue uptake at 2 min (in vivo; iv, 0.74 MBq (20 uCi) per mouse, Heart uptake) was 9.15 ± 0.91 %ID/g, the tissue uptake at 2 min (in vivo; [6]) was 5.39 ± 0.84 %ID/g and the tissue uptake at 5 min (in vivo; [6]) was 6.06 ± 1.42 %ID/g. The tissue uptake at 0.25 h (in vivo; [6]) was 5.73 ± 0.64 %ID/g, the tissue uptake at 0.5 h (in vivo; [6]) was 6.28 ± 0.59 %ID/g and the tissue uptake at 1 h (in vivo; [6]) was 5.27 ± 1.09 %ID/g. The tissue uptake at 2 h (in vivo; [6]) was 4.18 ± 0.53 %ID/g, the tissue uptake at 2 min (in vivo; [7]) was 3.97 ± 0.56 %ID/g and the tissue uptake at 5 min (in vivo; [7]) was 5.91 ± 1.16 %ID/g. For the same compound, the tissue uptake at 0.25 h (in vivo; [7]) was 2.79 ± 0.68 %ID/g, the tissue uptake at 0.5 h (in vivo; [7]) was 3.32 ± 1.77 %ID/g and the tissue uptake at 1 h (in vivo; [7]) was 1.08 ± 0.21 %ID/g. The tissue uptake at 2 h (in vivo; [7]) was 1.22 ± 0.7 %ID/g, the tissue uptake at 2 min (in vivo; [8]) was 5.6 ± 0.85 %ID/g and the tissue uptake at 5 min (in vivo; [8]) was 5.08 ± 2.74 %ID/g. The tissue uptake at 0.25 h (in vivo; [8]) was 3.11 ± 1.47 %ID/g, the tissue uptake at 0.5 h (in vivo; [8]) was 2.59 ± 0.96 %ID/g and the tissue uptake at 1 h (in vivo; [8]) was 1.85 ± 1.48 %ID/g. It also gave a tissue uptake at 2 h (in vivo; [8]) of 1.1 ± 0.96 %ID/g, a tissue uptake at 5 min (in vivo; iv, 0.74 MBq, Heart uptake) of 7.54 ± 2.08 %ID/g and a tissue uptake at 0.25 h (in vivo; iv, 0.74 MBq, Heart uptake) of 3.57 ± 0.82 %ID/g. The tissue uptake at 0.5 h (in vivo; iv, 0.74 MBq, Heart uptake) was 3.64 ± 0.66 %ID/g, the tissue uptake at 1 h (in vivo; iv, 0.74 MBq, Heart uptake) was 1.19 ± 0.7 %ID/g and the tissue uptake at 2 h (in vivo; iv, 0.74 MBq, Heart uptake) was 1.01 ± 0.15 %ID/g. The tissue uptake at 2 min (in vivo; iv, 0.74 MBq, Kidney uptake) was 24.9 ± 1.12 %ID/g, the tissue uptake at 5 min (in vivo; iv, 0.74 MBq, Kidney uptake) was 36.5 ± 2 %ID/g and the tissue uptake at 0.25 h (in vivo; iv, 0.74 MBq, Kidney uptake) was 22.1 ± 1.43 %ID/g. It also gave a tissue uptake at 0.5 h (in vivo; iv, 0.74 MBq, Kidney uptake) of 25.7 ± 1.17 %ID/g, a tissue uptake at 1 h (in vivo; iv, 0.74 MBq, Kidney uptake) of 22.2 ± 1.92 %ID/g and a tissue uptake at 2 h (in vivo; iv, 0.74 MBq, Kidney uptake) of 15.2 ± 0.96 %ID/g. It also gave a tissue uptake at 2 min (in vivo; iv, 0.74 MBq, Liver uptake) of 8.01 ± 1.26 %ID/g, a tissue uptake at 5 min (in vivo; iv, 0.74 MBq, Liver uptake) of 7.09 ± 2.03 %ID/g and a tissue uptake at 0.25 h (in vivo; iv, 0.74 MBq, Liver uptake) of 14.8 ± 1.11 %ID/g. It also gave a tissue uptake at 0.5 h (in vivo; iv, 0.74 MBq, Liver uptake) of 16.1 ± 2.34 %ID/g, a tissue uptake at 1 h (in vivo; iv, 0.74 MBq, Liver uptake) of 21.6 ± 3.53 %ID/g and a tissue uptake at 2 h (in vivo; iv, 0.74 MBq, Liver uptake) of 13.7 ± 2.35 %ID/g. For the same compound, the tissue uptake at 2 min (in vivo; iv, 0.74 MBq, Lung uptake) was 6.26 ± 1.29 %ID/g, the tissue uptake at 5 min (in vivo; iv, 0.74 MBq, Lung uptake) was 4.74 ± 1.69 %ID/g and the tissue uptake at 0.25 h (in vivo; iv, 0.74 MBq, Lung uptake) was 3.05 ± 0.4 %ID/g. The tissue uptake at 0.5 h (in vivo; iv, 0.74 MBq, Lung uptake) was 2.15 ± 0.27 %ID/g, the tissue uptake at 1 h (in vivo; iv, 0.74 MBq, Lung uptake) was 2.19 ± 0.42 %ID/g and the tissue uptake at 2 h (in vivo; iv, 0.74 MBq, Lung uptake) was 1.62 ± 0.35 %ID/g. It also gave a tissue uptake at 2 min (in vivo; iv, 0.74 MBq, Spleen uptake) of 3.84 ± 1.47 %ID/g, a tissue uptake at 5 min (in vivo; iv, 0.74 MBq, Spleen uptake) of 5.09 ± 1.29 %ID/g and a tissue uptake at 0.25 h (in vivo; iv, 0.74 MBq, Spleen uptake) of 3.08 ± 0.55 %ID/g. The tissue uptake at 0.5 h (in vivo; iv, 0.74 MBq, Spleen uptake) was 2.66 ± 0.22 %ID/g, the tissue uptake at 1 h (in vivo; iv, 0.74 MBq, Spleen uptake) was 1.81 ± 0.57 %ID/g and the tissue uptake at 2 h (in vivo; iv, 0.74 MBq, Spleen uptake) was 1.24 ± 0.3 %ID/g. It also gave a tissue uptake at 2 min (in vivo; iv, 0.74 MBq, Stomach uptake) of 5.63 ± 1.98 %ID/g, a tissue uptake at 5 min (in vivo; iv, 0.74 MBq, Stomach uptake) of 7.27 ± 1.89 %ID/g and a tissue uptake at 0.25 h (in vivo; iv, 0.74 MBq, Stomach uptake) of 4.26 ± 0.55 %ID/g. The tissue uptake at 0.5 h (in vivo; iv, 0.74 MBq, Stomach uptake) was 4.78 ± 0.98 %ID/g, the tissue uptake at 1 h (in vivo; iv, 0.74 MBq, Stomach uptake) was 2.32 ± 0.56 %ID/g and the tissue uptake at 2 h (in vivo; iv, 0.74 MBq, Stomach uptake) was 1.55 ± 0.2 %ID/g. For the same compound, the “In vivo defluorination (bone uptake)” value (in vivo) was “no obvious in vivo defluorination”, the Blood clearance (in vivo; iv) was “rapid blood clearance” and the Micro-PET tumor/muscle ratio ([1]; 3.7MBq i.v., SUV-based T/NT) was 8.069±2.832. The “Micro-PET T/Lung” value ([1]; printed in the sentence on blocking with unlabeled ADH-1 (group unclear)) was 5.062 ± 0.805, the “Partition coefficient (log Po/w)” value [2] was -2.45 ± 0.09 and the “Micro-PET T/Bone” value (BxPC3 tumor xenografts) was 0.055 ± 0.022. For the same compound, the “Micro-PET T/Lung” value (BxPC3 tumor xenografts) was 0.291 ± 0.195 and the Micro-PET tumor/muscle ratio (BxPC3 tumor xenografts) was 1.018 ± 0.498.
